B1: rAb-58 (recombinant monoclonal NMO-IgG) (antibody, V domains shown)
VH: VQLVESGGGLVQPGGSLRLSCAASGFTFRGYAMNWVRQAPGKGLEWVASISGSGSITQYADSAKGRFTITRDNSKSTLYAHVSSLRADDTAVYYCAKGDYVFDYWGQGTLVTVSS
VL: DIQMTQSPSALSASVGDTVTITCRASQSIRSWLAWYQQKPGKAPKLLIYKASDLQSGVPSRFSGSGSGTDFTLTISGLQPDDFATYYCQHYNSYPYTFGQGTKVEIRR
notes: Human recombinant IgG made in HEK293 cells
B2: rAb-53 (recombinant monoclonal NMO-IgG, non-mutated) (antibody, V domains shown)
VH: QVQLQESGAGLVKPSETLSLTCTVSGGSISGHYWNWIRQPPGKGLEWIGYIHYSGSTNYNPSLKSRVTISVDTSKNQFSLKLSSVTAADTAVYYCARAEGRGWSAFYYYYMEVWGKGSTVSVSS
VL: EIVLTQSPGTLSLSPGERATLSCRASQTVRTNYLAWFQQKPGQAPRLLIFGASSRATGIPDRFSGSGSGTDFTLTISRLEPEDFAVYYCQQYGSSPWTFGQGTKVEIKR
notes: Human recombinant IgG made in HEK293 cells; also called NMO-IgG (rAb-53)

Key:
[1] = target: Myc-tagged human M1 AQP4 on U87MG cells (human) (UniProt P55087); assay: fluorescence ratio imaging on U87MG cells (FIG. 6C)
[2] = target: Myc-tagged human M23 AQP4 on U87MG cells (human) (UniProt P55087); assay: as above
[3] = target: Myc-tagged human M1 AQP4 on U87MG cells (human) (UniProt P55087); assay: fluorescence ratio imaging on U87MG cells expressing Myc-tagged AQP4, anti-mouse IgG Alexa 488 detection
[4] = target: Myc-tagged human M23 AQP4 on U87MG cells (human) (UniProt P55087); assay: as above
[5] = target: T1, human AQP4 M1 isoform on U87MG cells (human, UniProt P55087 1-323); assay: two-colour fluorescence ratio imaging on U87MG cells, rAb titration, single-site binding fit
T1 construct: Water channel; forms individual tetramers, no OAPs; also called M1 AQP4; M1-AQP4
From the text: (§1) FIG. 4B summarizes concentration-dependence binding curves for three recombinant NMO-IgGs, together with curve fits for a single-site binding model.

[6] = target: T2, human AQP4 M23 isoform on U87MG cells (human, UniProt P55087 23-323); assay: as above
T2 construct: Tetramers that assemble into orthogonal arrays of particles (OAPs); The chain begins at Met-23 of the long isoform; also called M23 AQP4; M23-AQP4
From the text: as §1

[7] = target: T2, human AQP4 M23 isoform on U87MG cells; assay: fluorescence ratio imaging on U87MG cells, single-site binding model
[8] = target: T3, purified recombinant human M1 AQP4 reconstituted in proteoliposomes (human, UniProt P55087 1-323); assay: surface plasmon resonance (Biacore T-100), AQP4 proteoliposomes on L1 chip, antibody injected
T3 construct: 3% (wt/wt) AQP4 in phosphatidylcholine:phosphatidylserine liposomes on a Biacore L1 chip; also called AQP4-reconstituted proteoliposomes; AQP4-proteoliposomes
Method: Surface plasmon resonance. […] The mixture was dialyzed (10,000 dalton cut-off) against PBS at 4° C. for 48 h. […] Proteoliposomes were immobilized on a L1 sensor chip (Biacore) with four injections at 10 min/injection at 2 μl/min to achieve 6000 response units of proteoliposomes immobilization. The surface was then washed with two 20 s injections of 50 mM NaOH at 100 μl/min, and checked for surface quality with a 300 s injection of 0.01 mg/ml BSA at 20 μl/min. Flow channel 1 (Fc 1) was immobilized with 0% AQP4 as reference, and Fc 2 contained the AQP4 proteoliposomes. Binding studies were conducted with PBS at a flow rate of 15 μl/min. rAbs in PBS were injected for 80 s followed by a post-injection period of 240 s. Regeneration was performed by injection of 50 mM NaOH at 100 μl/min for 20 s. Binding studies were done in duplicate. Data were analyzed using Biacore T100 Evaluation software.
Binding of each monoclonal recombinant antibody to AQP4 in reconstituted proteoliposomes was measured by surface plasmon resonance.

[9] = target: M23:CCA mixtures (human M23 AQP4 co-expressed with M1-C13A/C17A) on U87MG cells (human) (UniProt P55087); assay: two-colour fluorescence ratio imaging on transiently transfected U87MG cells, rAb-53 titration
[10] = target: T2, human AQP4 M23 isoform on U87MG cells; assay: as above
[11] = target: T2, human AQP4 M23 isoform on U87MG cells; assay: as above; remark: listed apart in the source
[12] = target: T2, human AQP4 M23 isoform on U87MG cells; assay: as above; remark: listed apart in the source

T2 sequence (P55087 23-323 limits assumed): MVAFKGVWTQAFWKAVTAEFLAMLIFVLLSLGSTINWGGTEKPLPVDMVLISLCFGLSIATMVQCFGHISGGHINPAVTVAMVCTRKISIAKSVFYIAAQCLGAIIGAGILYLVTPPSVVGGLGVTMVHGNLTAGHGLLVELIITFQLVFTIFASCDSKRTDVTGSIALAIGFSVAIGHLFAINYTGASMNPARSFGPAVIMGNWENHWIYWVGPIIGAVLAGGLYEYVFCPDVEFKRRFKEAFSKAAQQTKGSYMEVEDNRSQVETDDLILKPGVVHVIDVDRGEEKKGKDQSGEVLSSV
T3 sequence (P55087 whole entry, form in doubt): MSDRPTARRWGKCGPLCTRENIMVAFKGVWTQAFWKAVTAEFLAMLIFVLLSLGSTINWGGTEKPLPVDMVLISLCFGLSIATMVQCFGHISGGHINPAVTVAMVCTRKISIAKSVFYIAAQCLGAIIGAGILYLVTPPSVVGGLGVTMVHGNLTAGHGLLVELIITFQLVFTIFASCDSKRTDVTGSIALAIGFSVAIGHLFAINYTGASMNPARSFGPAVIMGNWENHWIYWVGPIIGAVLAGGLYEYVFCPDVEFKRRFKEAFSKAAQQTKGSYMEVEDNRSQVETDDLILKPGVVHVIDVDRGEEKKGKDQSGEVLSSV
Chain of Myc-tagged human M23 AQP4 on U87MG cells (human) (P55087 whole entry, canonical isoform): as the sequence (P55087 whole entry, form in doubt) above
Chain of Myc-tagged human M1 AQP4 on U87MG cells (human) (P55087 whole entry): as the sequence (P55087 whole entry, form in doubt) above
T1 sequence (P55087 whole entry, canonical isoform): as the sequence (P55087 whole entry, form in doubt) above

Molecule | Kd [1] [nM] | Kd [2] [nM] | EC50 (read off the curve) [3] [µg/mL] | EC50 (read off the curve) [4] [µg/mL] | Kd [5] [nM] | EC50 (read off the curve) [6] [µg/mL] | Kd [6] [nM] | Kd [7] [nM] | Kd [8] [nM] | koff [8] [s⁻¹] | kon [8] [M⁻¹ s⁻¹] | EC50 (read off the curve) [9] [µg/mL] | EC50 (read off the curve) [10] [µg/mL] | EC50 (read off the curve) [11] [µg/mL] | EC50 (read off the curve) [12] [µg/mL]
monoclonal mouse anti-Myc IgG (Covance) (antibody) | 10 | 10 | 2 | 1 | – | – | – | – | – | – | – | – | – | – | –
B1 | – | – | – | – | 147 | ~10 | 68 | – | – | – | – | – | – | – | –
B2 | – | – | – | – | 2800 | ~7 | – | 44 | 27 | 0.00038 | 14000 | 6 | ~7 | ~7 | ~7
